The values below come from US20240317871A1 (IMMUNOMIC THERAPEUTICS, published 2024).

The chains are these.
T1: human HVEM (human, UniProt Q92956 39-202, limits assumed)
T1 sequence (looked up): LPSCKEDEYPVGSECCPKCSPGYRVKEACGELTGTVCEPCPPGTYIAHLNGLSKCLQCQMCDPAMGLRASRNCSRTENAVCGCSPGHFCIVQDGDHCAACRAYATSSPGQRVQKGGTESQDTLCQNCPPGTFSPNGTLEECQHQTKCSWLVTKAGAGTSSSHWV

T2: murine HVEM (murine, UniProt Q80WM9 39-206, limits assumed)
T2 construct: also called Mouse
T2 sequence (looked up): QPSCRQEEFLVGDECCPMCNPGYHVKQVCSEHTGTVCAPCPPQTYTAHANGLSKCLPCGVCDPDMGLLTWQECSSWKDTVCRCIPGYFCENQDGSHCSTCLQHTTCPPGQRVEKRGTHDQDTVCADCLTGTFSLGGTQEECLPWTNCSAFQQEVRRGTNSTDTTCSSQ

T3: cynomolgus monkey HVEM (cynomolgus monkey, UniProt A0A2K5W0R1 39-203)
T3 sequence: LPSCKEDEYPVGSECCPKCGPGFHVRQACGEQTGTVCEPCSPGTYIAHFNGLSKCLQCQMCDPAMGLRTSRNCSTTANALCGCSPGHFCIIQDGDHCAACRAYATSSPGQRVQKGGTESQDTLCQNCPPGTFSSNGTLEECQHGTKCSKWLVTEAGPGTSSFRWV

T4: Human HEVM recombinant protein (Sino Biological, 10334-H02H) (human, UniProt Q92956 39-202)
T4 construct: construct known only by catalogue number; also called HVEM; human HVEM
T4 sequence (looked up): T1 sequence (looked up)

T5: His-tagged human HVEM (human, UniProt Q92956 39-202, limits assumed)
T5 construct: Analyte of the BLI assay, 200 nM in PBS; not shown: His tag
T5 sequence (looked up): T1 sequence (looked up)

B1: Ab_036 (H5S15-12A13A) (antibody, V domains shown)
VH: EVQLQQSGAELVKPGASVKLSCTASGFNIKDTYMHWVKQRPEQGLEWIGRIDPANGNTKFDPKFQGKATITADTSSNTAYLQLSSLTSEDTAVYYCASRGGSSFDYWGQGTTLTVSS
VL: DIVLTQSPASLAVSLGQRATISCKASQSVDYDGESYMNWYQQKPGQPPKLLIYAASNLDSGIPARFSGSGSGTDFTLNIHPVEEEDAATYYCQQSNEDPLTFGAGTKLELK
notes: also called Ab_36
B2: Ab_043 (H5S15-29A24A) (antibody, V domains shown)
VH: EVQLQQSGAELVRPGALVKLSCKASGFNIKDDYMHWVKQRPEQGLEWIGWIDPENGNTIYDPKFQGKASITADTSSNTAYLQLSSLTSEDTAVYYCARGYSSSPYWGQGTLVTVSA
VL: B1 VL with E34N, G45R, D59E, S67R, L100F, A104S, L110I
notes: also called Ab_43
B3: Ab_072 (H5S20-15A13A) (antibody, V domains shown)
VH: B1 VH with F60Y, S98T, R99S, F104Y
VL: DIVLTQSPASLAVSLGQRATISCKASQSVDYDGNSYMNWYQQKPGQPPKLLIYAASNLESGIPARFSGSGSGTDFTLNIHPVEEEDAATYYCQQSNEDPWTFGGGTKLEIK
notes: also called Ab_72
B4: Ab_063 (H5S20-4A4A) (antibody, V domains shown)
VH: EVKLVESGGGLMKPGGSLKLSCAASGFTFSSYAMSWVRQTPETRLEWVASISSGGSTYYPDSVKGRFTISRDNVRNILYLQMSSLRSEDTAMYFCTRGGYGSSYVIWGQGTTLTVSS
VL: DIVMSQSPSSLAVSVGEKITMSCKSSQSLLFSSIQKNYLAWYQQKPGQSPKLLVYWASTRESGVPDRFTGSGSGTDFTLTISSVKAEDLAVYYCQQYYSYPFTFGSGTKLEIK
notes: also called Ab_159; Ab_63
B5: Ab_066 (H5S20-1A1A) (antibody, V domains shown)
VH: B4 VH with M12V, S56D, Y58F, P60R, G65A, N73D, N76D, Y104F
VL: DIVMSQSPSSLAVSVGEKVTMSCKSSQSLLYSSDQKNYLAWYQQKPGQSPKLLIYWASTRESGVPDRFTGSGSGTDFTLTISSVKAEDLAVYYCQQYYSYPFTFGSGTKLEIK
notes: also called Ab_66
B6: Ab_064 (H5S20-6A6A) (antibody, V domains shown)
VH: B4 VH with M12V, Y32F, T43K, S56N, S62N, V74A, R75G, F94Y, T96A
VL: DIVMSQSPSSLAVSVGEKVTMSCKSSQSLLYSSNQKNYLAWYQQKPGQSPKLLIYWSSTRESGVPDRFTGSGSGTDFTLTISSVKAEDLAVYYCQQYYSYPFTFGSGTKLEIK
notes: also called Ab_64
B7: Ab_078 (H5S20-45A34A) (antibody, V domains shown)
VH: EVQLQQSGAELVRSGASVKLSCAASGFNIKDYYMHWVKQRPEQGLEWIGWIDPENGDTEFAPKFQGKATLTADTSSNTAYLQLSSLTSEDTAVYYCNTRTLGYWGQGTLVTVSA
VL: QIVLTQSPALMSASPGEKVTMTCTASSSVSYMYWYQQKPRSSPKPWIYLTSNLASGVPARFSGSGSGTSYSLTISSMEAEDAATYYCQQWSSNPLTFGAGTKLELR
notes: also called Ab_78
B8: Ab_080 (H5S20-27A23A) (antibody, V domains shown)
VH: EVQLQQSGTVLARPGASVKMSCKASGYSFTSYWMHWLKQRPGQGLEWIGAIYPGNSDTVFNQKFKGKAKLTAVTSATTAYMELSSLTNEDSAVYYCTKEPRTIEGAWFTYWGQGTLVTVSA
VL: DIVMTQSPSSLTVPAGEKVTMSCKSSQSLLNSENQKNYLTWYQQKPGQPPKLLIYWASTRESGVPDRFTGSGSGTDFTLTISSVQAEDLAVYYCQSDYSYPLTFGAGTKLELK
notes: also called Ab_80

Residue numbers refer to the chain shown, from its start.

One experiment deals with T1, human HVEM. The experiment can be described thus: ELISA.
Regarding B1, the ELISA signal was 3.26.
Molecule B2 came in with an ELISA signal of 3.22.
Consider B3, for which the ELISA signal came to 3.36.
B4 gave an ELISA signal of 3.1.
Turning to B5, the ELISA signal turned out to be 3.28.
As for B6, the ELISA signal was determined as 3.07.
B7 returned an ELISA signal of 3.08.
For the molecule B8, the ELISA signal stood at 3.07.

The target in the next experiment is T2, murine HVEM. The experiment can be described thus: ELISA. (In general: An ELISA detects its analyte on a solid surface through an enzyme-linked reagent.)
As for B1, the ELISA signal was found to be 0.046.
In turn, B2 showed an ELISA signal of 0.043.
Regarding B3, the ELISA signal amounted to 0.045.
Molecule B4 showed an ELISA signal of 0.043.
B5 came in with an ELISA signal of 0.044.
Regarding B6, the ELISA signal was determined as 0.044.
B7 gave an ELISA signal of 0.046.
B8 gave an ELISA signal of 0.048.

A further experiment has as its target T3, cynomolgus monkey HVEM. Put plainly: ELISA.
Molecule B1 had an ELISA signal of 0.079.
On to B2, for which the ELISA signal turned out to be 0.058.
Same read-out and setting: the same measure for B3: 0.062.
For B4, the ELISA signal came out at 3.13.
Still for that read-out and setting: the same measure for B5: 0.883; for B6: 0.987.
B7 came in with an ELISA signal of 0.063.
Take B8: the ELISA signal worked out at 2.26.

The target of another experiment is T4, Human HEVM recombinant protein (Sino …). The experiment can be described thus: competition ELISA, competitor LIGHT-His. The method, then:
The competitive activity of HVEM antibody to BTLA or LIGHT was evaluated with ELISA-based competitive assay. Briefly Human HEVM recombinant protein (Sino Biological, 10334-H02H, 4 ug/ml, 100 ul/well) was coated to ELISA plate (Thermo Scientific, 469949, 4C overnight). A pre-mixture of HVEM antibody clone with seral dilution and 400 nM BTLA-His (R&D systems, 9235-BT-050) or LIGHT-His (SinoBiological, 10386-H07H) recombinant protein was made and added to the ELISA plate after blocking with 3% BSA (200 ul/well, RT 2 Hr) for 1 Hr at RT. The serial dilutions of HVEM antibody clone involve 7 different concentrations, with a 3-fold dilution performed start from 100 nM for BTLA or 325 nM for LIGHT competitive assay. The concentration was the final concentration. Plate was washed with PBST; diluted HRP-anti-His (Biolegend, 652504, 1:1000) with PBS containing 5% FBS was added 100 ul per well for 1 Hr at RT. TMB substrate (KPL, 52-00-00) 100 ul per well after washing and incubate at room temperature for 15 minutes; then stop the development by adding 100 ul stop solution (KPL, 50-85-06). Plate was read at 450 nm. The IC50 was calculated using GraphPad Prism software (GraphPad Software, Inc. San Diego, CA, USA).
One may read the IC50 as the concentration needed to halve the response being measured. As to B1, the IC50 is 18.7 nM.
Take B2: the IC50 came out at 15.3 nM.
Still for that read-out and setting: the same measure for B3: 252 nM.
In the case of B4, the IC50 was determined as 5.7 nM.
For B5, the IC50 is 10.4 nM.
Take B6: the IC50 amounted to 8.7 nM.
On to B7, for which the IC50 turned out to be 14.5 nM.
In the case of B8, the IC50 came out at 37.3 nM.

Another experiment shares this target. The experiment can be described thus: competition ELISA, competitor BTLA-His. A digest of the protocol: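 Competitor (BTLA-His or LIGHT-His, 400 nM) premixed with 7-point 3-fold antibody dilutions, final top 100 nM or 325 nM respectively, then added 1 Hr at RT to plate-coated HVEM (4 ug/ml). His-tag signal read at 450 nm after HRP/TMB; IC50 derived.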
Turning to B1, the IC50 was 0.8 nM.
Regarding B2, the IC50 amounted to 1.1 nM.
Same read-out and setting: next, B3: 1.6 nM.
On to B4, for which the IC50 came to 2.2 nM.
Turning to B5, the IC50 is 1.5 nM.
Consider B6, for which the IC50 worked out at 1.5 nM.
As for B7, the IC50 is 1.5 nM.
Same read-out and setting: next, B8: 1.8 nM.

The next experiment concerns the target T5, His-tagged human HVEM. The experiment can be described thus: BLI OctetRed96, mAb captured, 200 nM His-HVEM. A digest of the protocol:
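Kinetics (kon, koff, KD) were fitted from association in 200 nM His-HVEM in PBS and dissociation in PBS buffer. The mouse antibodies had been captured directly from culture supernatant onto anti-mouse IgG Fc sensors.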
By Kd is commonly meant the free concentration of one partner at which half of the binding sites on the other are occupied at equilibrium, for simple one-to-one binding. In general, koff refers to the first-order rate constant of dissociation. As a reminder, the kon is the second-order rate constant of association. With B1, the Kd stood at 18.7 nM, the koff is 0.0107 s⁻¹ and the kon was determined as 571000 M⁻¹ s⁻¹.
Taken in the same sequence, the figures for B2 were 3.92 nM, 0.00148 s⁻¹ and 378000 M⁻¹ s⁻¹.
For B3, the Kd came out at 11.7 nM, the koff turned out to be 0.0197 s⁻¹ and the kon was 1.69e+06 M⁻¹ s⁻¹.
In turn, B4 gave a Kd of 4.09 nM, a koff of 0.00216 s⁻¹ and a kon of 528000 M⁻¹ s⁻¹.
In turn, B5 displayed a Kd of 9.59 nM, a koff of 0.00247 s⁻¹ and a kon of 258000 M⁻¹ s⁻¹.
In turn, B6 registered a Kd of 10.7 nM, a koff of 0.00355 s⁻¹ and a kon of 333000 M⁻¹ s⁻¹.
Taken in the same sequence, the figures for B7 were 4.95 nM, 0.0023 s⁻¹ and 466000 M⁻¹ s⁻¹.
Regarding B8, the Kd came to 7.09 nM, the koff worked out at 0.00115 s⁻¹ and the on-rate (kon) turned out to be 162000 M⁻¹ s⁻¹.
